Biological target: soluble head domain of CDV-H (canine distemper virus hemagglutinin), Kyoto Biken vaccine strain, mad (canine distemper virus (Kyoto Biken vaccine strain))
Assay: SEC + other: non-reducing SDS-PAGE

Substance: soluble head domain of CDV-H (canine distemper virus hemagglutinin), Kyoto Biken vaccine strain, mad (domain or fragment)
- stoichiometry N: 2

Reference: publication PMC11268888
